The experiment has as its target murine 103 gene product, transmembrane form, on the cell surface (murine) (UniProt P14719). The experiment is described as follows: flow cytometry; digoxigenin-labelled 3E10 with anti-Dig-PE against CD4-FITC, on CD4+ T cells cultured with IL-4 + anti-IL-12 (TH2 conditions). This is the middle of three panels, between 5.2 % (after primary restimulation) and 41 % (after tertiary restimulation). [C) TH2, middle panel]. For orientation: In flow cytometry, cells or beads pass a laser one at a time.
UniProt P14719, sequence (P14719 24-567): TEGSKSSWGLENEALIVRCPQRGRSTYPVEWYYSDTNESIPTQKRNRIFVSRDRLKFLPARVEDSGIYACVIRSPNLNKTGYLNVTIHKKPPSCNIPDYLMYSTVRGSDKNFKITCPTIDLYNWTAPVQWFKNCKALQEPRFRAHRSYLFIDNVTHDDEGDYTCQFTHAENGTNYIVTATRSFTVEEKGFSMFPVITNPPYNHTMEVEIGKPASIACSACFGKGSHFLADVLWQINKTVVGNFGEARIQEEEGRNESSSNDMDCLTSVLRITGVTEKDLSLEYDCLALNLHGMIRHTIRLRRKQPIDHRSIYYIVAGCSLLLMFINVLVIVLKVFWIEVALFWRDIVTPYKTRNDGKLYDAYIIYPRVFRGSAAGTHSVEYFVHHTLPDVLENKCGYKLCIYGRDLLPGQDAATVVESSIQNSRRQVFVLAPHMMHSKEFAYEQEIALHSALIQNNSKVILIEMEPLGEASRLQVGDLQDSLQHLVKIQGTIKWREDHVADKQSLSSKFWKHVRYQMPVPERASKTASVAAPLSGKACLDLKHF

For 3E10 mAb (antibody), the % of cells in the upper right quadrant (3E10+ CD4+) is 11.1%.

(Values after patent publication US20020058800A1.)
